In patent publication EP4692123A1, “ANTI-BCAM ANTIBODY AND ANTIBODY-DRUG CONJUGATE” (priority 2023, dated 2024):
“And” between values parts separate entries of the source, which are not always exact repeats. Equal entries are not always repeated.

How the values were obtained:
[1] = biological target: T1, human BCAM antigen protein expressed on the cell surface (human, UniProt P50895 32-628); assay: flow cytometry on HEK293FT cells transfected with human BCAM
T1 construct: whole, on cells; also called human BCAM expressed on the cell surface; BCAM on HEK293FT cells transfected with the 293FT/BCAM plasmid
T1 sequence (looked up): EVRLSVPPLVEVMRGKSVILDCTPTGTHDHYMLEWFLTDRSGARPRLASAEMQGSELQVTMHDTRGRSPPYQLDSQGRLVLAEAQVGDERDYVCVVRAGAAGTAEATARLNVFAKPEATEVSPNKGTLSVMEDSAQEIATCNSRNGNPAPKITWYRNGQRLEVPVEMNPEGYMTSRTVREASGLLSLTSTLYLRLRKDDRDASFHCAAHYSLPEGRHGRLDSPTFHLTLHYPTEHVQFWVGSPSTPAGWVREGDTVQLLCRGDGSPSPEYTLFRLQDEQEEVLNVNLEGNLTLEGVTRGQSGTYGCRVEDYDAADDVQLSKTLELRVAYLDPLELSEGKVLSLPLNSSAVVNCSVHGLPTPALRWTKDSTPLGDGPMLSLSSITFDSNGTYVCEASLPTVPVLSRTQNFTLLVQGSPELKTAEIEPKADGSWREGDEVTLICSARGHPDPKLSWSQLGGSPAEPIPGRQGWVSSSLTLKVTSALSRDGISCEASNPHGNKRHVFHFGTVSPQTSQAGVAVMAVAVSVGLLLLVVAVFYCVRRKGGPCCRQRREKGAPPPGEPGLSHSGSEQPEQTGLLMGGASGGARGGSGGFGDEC

[2] = biological target: T2, human BCAM protein (10238-H08H, SinoBiological, China) (human, UniProt P50895 32-547); assay: ELISA, plate coated with human BCAM, anti-human IgG Fc-HRP detection
T2 construct: Bought recombinant protein; also called antigen protein; Lu
T2 sequence (looked up): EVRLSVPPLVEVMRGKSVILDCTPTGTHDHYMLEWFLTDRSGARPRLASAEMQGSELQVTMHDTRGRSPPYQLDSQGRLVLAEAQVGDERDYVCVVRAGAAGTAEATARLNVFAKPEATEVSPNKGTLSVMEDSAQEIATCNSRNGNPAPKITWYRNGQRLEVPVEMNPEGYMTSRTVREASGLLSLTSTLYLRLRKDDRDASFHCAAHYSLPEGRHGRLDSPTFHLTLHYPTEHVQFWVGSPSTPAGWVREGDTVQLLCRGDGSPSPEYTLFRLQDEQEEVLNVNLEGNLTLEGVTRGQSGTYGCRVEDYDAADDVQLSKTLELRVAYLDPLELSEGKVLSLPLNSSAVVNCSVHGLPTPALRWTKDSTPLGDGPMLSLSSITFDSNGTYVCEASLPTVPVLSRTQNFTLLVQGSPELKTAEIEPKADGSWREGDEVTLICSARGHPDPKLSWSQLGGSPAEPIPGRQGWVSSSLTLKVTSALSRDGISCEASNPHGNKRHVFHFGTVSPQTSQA

[3] = biological target: T2, human BCAM protein (10238-H08H, …); assay: BLI (Octet R8), human BCAM amine-coupled on AR2G biosensors, antibody in solution, 1:1 model
[4] = biological target: T2, human BCAM protein (10238-H08H, …); assay: ELISA, plate coated with 7 nM human BCAM, anti-human IgG Fc-HRP detection
DU145 = assay: In vitro anticancer effect, CellTiter-Glo cell viability; assay type: cell-based, human; conditions: DU145, 72 hours
Description: (§1) An in vitro experiment was conducted to confirm the anticancer effect of the Ab-II antibody-drug conjugate produced in Example 4 on human cell lines that express high levels of BCAM.
(§2) 5 x 10^3 cells of SK-BR-3 (human breast cancer cell line, KCLB), OVCAR3 (human ovarian cancer cell line, KCLB), and DU145 (human prostate cancer cell line, KCLB) were seeded into a 96-well plate (3595, Corning, USA). The next day, after confirming cell attachment to the plate, the existing cell culture was removed. Ab-II, produced in Example 4, was serially diluted in cell culture medium from 1 µM in a 5-fold dilution series across 8 points (down to 12.8 pM), and 200 µL was added to each well. On the day of drug treatment, the luminescence of the negative control (0% control, untreated with the drug) was measured. The culture medium was removed, 100 µL of CellTiter-Glo® (Promega, USA) solution was added to each well, and after reacting for 10 minutes at room temperature, the luminescence was measured with a microplate reader (Synergy H1, Biotek, USA). The experimental group treated with the drug and the positive control group (100% control, untreated with the drug) were reacted for 72 hours in a 37°C CO2 incubator. Afterward, the culture medium was removed, 100 µL of CellTiter-Glo® solution was added to each well, and after reacting for 10 minutes at room temperature, the luminescence was measured with the microplate reader. The % cell viability for Ab-II was calculated by substituting into the formula: [(Ab-II treated group) - (0% control group)] / [(100% control group) - (0% control group)]. The GI50 (half-maximal growth inhibition concentration) value of Ab-II for each cell line was calculated using GraphPad Prism (GraphPad software Inc., USA) based on the % cell viability.

OVCAR3 = assay: as above; assay type: cell-based, human; conditions: OVCAR3, 72 hours
Description: as §1, §2

SK-BR-3 = assay: as above; assay type: cell-based, human; conditions: SK-BR-3, 72 hours
Description: as §1, §2

B1: Ab-I antibody (anti-BCAM human IgG4 antibody) (antibody, V domains shown)
VH: EVQLVESGGGLVKPGGSLRLSCAASGFTFSSYSMNWVRQAPGKGLEWVSSISSSSSYIYYADSVKGRFTISRDNAKNSLYLQMNSLRAEDTAVYYCARIIGGWLGDYWGQGTLVTVSS
VL: NIQMTQSPSSVSASVGDRVTITCRASQGISSWLAWYQQKPGKAPKLLIYAASSLRSGVPSRFSGSGSGTDFTLTISSLQPEDFATYYCQQANSFPPPTFGGGTKVEIK
notes: From a human scFv phage library, expressed in ExpiCHO-S
EC50 [1]: 0.594 nM and 0.086 µg/mL
EC50 [2]: 124 pM
Kd [3]: 991 pM
koff [3]: 0.00216 s⁻¹
kon [3]: 2.18e+06 M⁻¹ s⁻¹

B2: Ab-II antibody-drug conjugate (antibody, DAR 5.3, V domains shown)
VH: EVQLVESGGGLVKPGGSLRLSCAASGFTFSSYSMNWVRQAPGKGLEWVSSISSSSSYIYYADSVKGRFTISRDNAKNSLYLQMNSLRAEDTAVYYCARIIGGWLGDYWGQGTLVTVSS
VL: NIQMTQSPSSVSASVGDRVTITCRASQGISSWLAWYQQKPGKAPKLLIYAASSLRSGVPSRFSGSGSGTDFTLTISSLQPEDFATYYCQQANSFPPPTFGGGTKVEIK
modifications: Compound 1 conjugated through its maleimide group to antibody cysteine side chains after partial reduction of the disulfide bonds; positions not given; DAR 5.3
notes: Calculated DAR 5.3; also called anti-BCAM antibody-drug conjugate Ab-II
EC50 [4]: 269 pM

B3: Ab-II (conjugate)
VH: EVQLVESGGGLVKPGGSLRLSCAASGFTFSSYSMNWVRQAPGKGLEWVSSISSSSSYIYYADSVKGRFTISRDNAKNSLYLQMNSLRAEDTAVYYCARIIGGWLGDYWGQGTLVTVSS
VL: NIQMTQSPSSVSASVGDRVTITCRASQGISSWLAWYQQKPGKAPKLLIYAASSLRSGVPSRFSGSGSGTDFTLTISSLQPEDFATYYCQQANSFPPPTFGGGTKVEIK
GI50 (DU145): 17000 pM
GI50 (OVCAR3): 350 pM
GI50 (SK-BR-3): 210 pM
